Assay results as given in the supplement of paper PMC10724198.
± gives the standard deviation of the averaged measurements.

Experiments:
Saccharomyces cerevisiae [1] = assay: protein stability index of tFT-peptide fusion (C-terminal peptide) (PSI (0-1 scale)); higher = more stable (slower turnover)
Method: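 MPS profiling in S. cerevisiae of the tFT-X12 degron library: putative degron peptides plus stable controls, 12 aa, fused to the C-terminus of a sfGFP-mCherry timer. Cells are FACS-sorted into 8 mCherry/sfGFP bins and deep-sequenced. PSI runs from 0 (unstable) to 1 (stable). Backgrounds are wild type, das1Δ and doa10Δ at 30 °C, and wild type, das1Δ, cdc34-1 and cdc53-1 at 37 °C; 2-3 technical replicates each.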

Saccharomyces cerevisiae [2] = assay: as above; conditions: genetic background: wild type; temperature: 30 C
[3] = genetic background: cdc34-1, temperature: 37 C
[4] = genetic background: cdc53-1, temperature: 37 C
[5] = genetic background: das1 deletion, temperature: 30 C
[6] = genetic background: das1 deletion, temperature: 37 C
[7] = genetic background: doa10 deletion, temperature: 30 C
[8] = genetic background: wild type, temperature: 30 C
[9] = genetic background: wild type, temperature: 37 C
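Further: PSI is a weighted mean of sequencing reads over stability bins, variants kept only with over 10 reads, mCherry proximal and sfGFP distal, peptide attached via GGGS linker.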

Sequence	protein stability index (Saccharomyces cerevisiae [1]; [3])	protein stability index (Saccharomyces cerevisiae [1]; [4])	protein stability index (Saccharomyces cerevisiae [1]; [5])	protein stability index (Saccharomyces cerevisiae [1]; [6])	protein stability index (Saccharomyces cerevisiae [1]; [7])	protein stability index (Saccharomyces cerevisiae [1]; [8])	protein stability index (Saccharomyces cerevisiae [1]; [9])	protein stability index (Saccharomyces cerevisiae [2])
RGCLVHSGFFIV	0.65 ± 0.034	0.683 ± 0.011	0.62 ± 0.018	0.6898 ± 0.0051	0.212 ± 0.0034	0.239 ± 0.027	0.4987 ± 0.0029	0.401 ± 0.067
VSCYYVFLIPFW	0.463 ± 0.011	0.6 ± 0.036	0.414 ± 0.038	0.57839 ± 0.00033	0.408 ± 0.018	0.409 ± 0.017	0.56 ± 0.0097	0.484 ± 0.02
SMGVLITYLVQV	0.399 ± 0.021	0.461 ± 0.012	0.324 ± 0.024	0.51 ± 0.015	0.25 ± 0.007	0.288 ± 0.033	0.452 ± 0.0061	0.45 ± 0.04
RLVPFMAVRVLF	0.571 ± 0.034	0.6204 ± 0.0016	0.517 ± 0.013	0.6492 ± 0.0023	0.413 ± 0.025	0.41 ± 0.018	0.5719 ± 0.0024	0.487 ± 0.044
ELDVRPMVFLVA	0.4192 ± 0.0018	0.4521 ± 0.0023	0.346 ± 0.038	0.4943 ± 0.0028	0.295 ± 0.0069	0.337 ± 0.027	0.457 ± 0.011	0.422 ± 0.007
TDSSWEVSLMVG	0.679 ± 0.051	0.747 ± 0.036	0.612 ± 0.012	0.733 ± 0.016	0.605 ± 0.023	0.6186 ± 0.0039	0.741 ± 0.026	0.374 ± 0.053
GCWRVELLVFMC	0.0459 ± 0.0044	0.205 ± 0.011	0.185 ± 0.03	0.33 ± 0.015	0.053 ± 0.02	0.0595 ± 0.017	0.0748 ± 0.03	0.0681 ± 0.02
ARTWVVLLICGH	0.4159 ± 0.0012	0.479 ± 0.025	0.355 ± 0.032	0.563 ± 0.04	0.28 ± 0.0056	0.328 ± 0.019	0.531 ± 0.045	0.423 ± 0.033
PCVCFIILGMLS	0.42 ± 0.013	0.515 ± 0.012	0.322 ± 0.035	0.563 ± 0.01	0.285 ± 0.013	0.308 ± 0.016	0.52 ± 0.021	0.449 ± 0.012
WFLRLVGAVFAL	0.539 ± 0.012	0.624 ± 0.039	0.528 ± 0.016	0.621 ± 0.018	0.46 ± 0.0085	0.485 ± 0.025	0.551 ± 0.032	0.447 ± 0.027
TWGGGRVSLGVG	0.313 ± 0.029	0.3966 ± 0.0028	0.326 ± 0.011	0.405 ± 0.018	0.3442 ± 0.0015	0.359 ± 0.044	0.401 ± 0.022	0.328 ± 0.016
WQILVRLIDFYT	0.453 ± 0.011	0.446 ± 0.023	0.345 ± 0.034	0.5107 ± 0.0039	0.311 ± 0.0072	0.338 ± 0.0092	0.4889 ± 0.00098	0.436 ± 0.0055
IRACGCSFLWVC	0.465 ± 0.048	0.63 ± 0.01	0.5 ± 0.026	0.678 ± 0.0079	0.1113 ± 0.00066	0.106 ± 0.0056	0.118 ± 0.015	0.192 ± 0.035
LVSCGNFLVFCF	0.299 ± 0.0056	0.311 ± 0.025	0.234 ± 0.021	0.387 ± 0.0079	0.211 ± 0.0058	0.234 ± 0.013	0.355 ± 0.0037	0.324 ± 0.0072
LSASFYFVFFSN	0.56 ± 0.013	0.6731 ± 0.0018	0.506 ± 0.023	0.6287 ± 0.006	0.155 ± 0.032	0.188 ± 0.0085	0.383 ± 0.021	0.292 ± 0.043
